The text below walks through data of the supplement of paper PMC10598134.

± gives the standard deviation.

The nature of the series: collision cross section of modified peptide (TIMS, N2, iRT-aligned); higher = larger / more extended gas-phase ion. The method, boiled down: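 Collision cross section was derived from the Mason-Schamp equation. Each value averages 1–3 technical replicates of the most abundant feature per charge state, measured on a timsTOF Pro/HT in dda-PASEF mode (nitrogen, ~2.4 mbar) after a 120-min nanoflow C18 gradient at 60 °C. Synthetic peptide pools (~100 fmol/µL in 2% acetonitrile/0.1% formic acid, iRT standard spiked 1:40) were identified with MaxQuant, and 1/K0 was calibrated with three reference ions and aligned run-wise to the median iRT peptide deviation.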

Where [1] appears, read: charge state: 2, modification: Butyryl.
[2] abbreviates: charge state: 2, modification: Dimethyl (K).
[3] abbreviates: charge state: 3, modification: Dimethyl (K).
Setting [4] is: charge state: 2, modification: Nitro (Y).
The mark [5] stands for this setting: charge state: 2, modification: GlyGly (K).
The mark [6] stands for this setting: charge state: 3, modification: GlyGly (K).
[7] abbreviates: charge state: 2, modification: Malonyl.
[8] abbreviates: charge state: 2, modification: Glutarylation.
Setting [9] is: charge state: 2, modification: Formyl.
The mark [10] stands for this setting: charge state: 3, modification: Methyl (R).
Setting [11] is: charge state: 2, modification: Crotonyl.
The mark [12] stands for this setting: charge state: 3, modification: Crotonyl.
Setting [13] is: charge state: 3, modification: Nitro (Y).
Setting [14] is: charge state: 2, modification: Biotin.
The mark [15] stands for this setting: charge state: 3, modification: Malonyl.
Setting [16] is: charge state: 2, modification: HexNAc (ST).
Where [17] appears, read: charge state: 2, modification: hydroxyisobutyryl.
The mark [18] stands for this setting: charge state: 3, modification: hydroxyisobutyryl.
[19] abbreviates: charge state: 2, modification: Acetyl (K).
[20] abbreviates: charge state: 3, modification: Acetyl (K).
Setting [21] is: charge state: 2, modification: Methyl (R).
Where [22] appears, read: charge state: 2, modification: Methyl (K).
Where [23] appears, read: charge state: 3, modification: Methyl (K).
The mark [24] stands for this setting: charge state: 2, modification: Propionyl.
Setting [25] is: charge state: 3, modification: Glutarylation.
[26] abbreviates: charge state: 2, modification: Citrullination (R).
[27] abbreviates: charge state: 3, modification: Succinyl.
The mark [28] stands for this setting: charge state: 2, modification: Succinyl.
The mark [29] stands for this setting: charge state: 3, modification: Trimethyl (K).

Take LAEEENKAK [_LAEEENK(Butyryl)AK_]: under setting [1], the collision cross section was 353.86 ± 0.84 Å².

The substance “LLEQKTQESQK [_LLEQK(Dimethyl (K))TQESQK_]” displayed a collision cross section under setting [2] of 409.09 ± 1.6 Å² and a collision cross section under setting [3] of 453.46 ± 1.6 Å².

In turn, LQIASDENYK [_LQIASDENY(Nitro (Y))K_] gave a collision cross section under setting [4] of 364.55 ± 1.2 Å².

On to IQQELQTAKK [_IQQELQTAK(Dimethyl (K))K_], for which the collision cross section is 374.44 ± 1.1 Å² under setting [2] and 426.86 ± 2.1 Å² under setting [3].

Regarding “LTEKELAEAASK [_LTEK(GlyGly (K))ELAEAASK_]”, the collision cross section was determined as 404.34 ± 0.36 Å² under setting [5] and 453.97 ± 1.1 Å² under setting [6].

Turning to “DLSTVEALQNLKNLK [_DLSTVEALQNLK(Malonyl)NLK_]”, under setting [7], the collision cross section amounted to 481.83 ± 1.5 Å².

The substance “GFCFITYTDEEPVKK [_GFCFITYTDEEPVK(Gluratylation)K_]” registered a collision cross section under setting [8] of 471.64 ± 1.5 Å².

AQSYAQQLGR [_AQSY(Nitro (Y))AQQLGR_] registered a collision cross section under setting [4] of 354.17 ± 0.17 Å².

On to “DAEAAEATAEGALKAEK [_DAEAAEATAEGALK(Dimethyl (K))AEK_]”, for which the collision cross section under setting [2] is given as 461.24 ± 1.8 Å² and the collision cross section under setting [3] is recorded as 536.26 ± 0.61 Å².

As for “INNFSADIKDSK [_INNFSADIK(GlyGly (K))DSK_]”, the collision cross section reads like this: under setting [5], 406.34 ± 0.36 Å²; under setting [6], 465 ± 2.2 Å².

PGLQGPR [_P(Hydroxyproline)GLQGPR_] yielded a collision cross section (charge state: 2, modification: Hydroxyproline) of 288.12 ± 3.8 Å².

Substance LAEEENKAK [_LAEEENK(Formyl)AK_] returned a collision cross section under setting [9] of 342.64 ± 1.5 Å².

Regarding “GATVTRGVPPPPTVR [_GATVTR(Methyl (R))GVPPPPTVR_]”, the collision cross section under setting [10] is 512.38 ± 1.6 Å².

Where the note is “charge state: 3, modification: Hydroxyproline”, “GERGFPGYPGPK [_GERGFPGYP(Hydroxyproline)GPK_]” gave a collision cross section of 456.01 ± 1.2 Å².

Regarding “SPSDSGYSYETIGKTTK [_SPSDSGYSYETIGK(Crotonyl)TTK_]”, the collision cross section is 455.39 ± 0.82 Å² under setting [11] and 528.2 ± 1.2 Å² under setting [12].

Consider VHATSTYR [_VHATSTY(Nitro (Y))R_], for which the collision cross section reads like this: under setting [4], 330 ± 0.55 Å²; under setting [13], 400.02 ± 0.83 Å².

Turning to “VTRYPILGIPQAHR [_VTR(Methyl (R))YPILGIPQAHR_]”, the collision cross section under setting [10] came to 524.3 ± 0.78 Å².

Turning to TTEETSKPK [_TTEETSK(Biotin)PK_], the collision cross section under setting [14] was 372.34 Å².

With “DAIHFYNKSLAEHR [_DAIHFYNK(Malonyl)SLAEHR_]”, under setting [15], the collision cross section is recorded as 505.96 ± 0.89 Å².

On to KVTLSVLSR [_KVT(HexNAc (ST))LSVLSR_], for which the collision cross section under setting [16] is reported as 375.11 ± 0.13 Å² and the collision cross section (charge state: 3, modification: HexNAc (ST)) worked out at 463.47 ± 1 Å².

Consider “GADFLVTEVENGGSLGSKK [_GADFLVTEVENGGSLGSK(hydroxyisobutyryl)K_]”, for which the collision cross section under setting [17] worked out at 478.5 ± 1.3 Å² and the collision cross section under setting [18] was 553.89 Å².

Take “IINEPTAAAIAYGLDKK [_IINEPTAAAIAYGLDK(Acetyl (K))K_]”: the collision cross section under setting [19] was determined as 458.66 ± 2.6 Å² and the collision cross section under setting [20] is on record as 554.46 ± 1.6 Å².

For “SGGRGVSVSSAR [_SGGR(Methyl (R))GVSVSSAR_]”, the collision cross section reads like this: under setting [21], 362.59 ± 13 Å²; under setting [10], 443.44 ± 0.81 Å².

For the substance “ANEKTESSSAQQVAVSR [_ANEK(Crotonyl)TESSSAQQVAVSR_]”, the collision cross section is, setting by setting: under setting [11], 431.52 ± 7.9 Å²; under setting [12], 536.98 ± 2.1 Å².

Turning to “GFALVGVGSEASSKK [_GFALVGVGSEASSK(Butyryl)K_]”, the collision cross section by setting is: under setting [1], 447.9 ± 0.87 Å²; (charge state: 3, modification: Butyryl) 499.86 ± 2.6 Å².

On to “ASTPGAAAQIQEVK [_AS(HexNAc (ST))TPGAAAQIQEVK_]”, for which the collision cross section under setting [16] is 409.94 ± 0.76 Å².

Under setting [11], “DYSSGFGGKYGVQADR [_DYSSGFGGK(Crotonyl)YGVQADR_]” yielded a collision cross section of 437.04 ± 0.54 Å².

In turn, “HELQANCYEEVKDR [_HELQANCYEEVK(Biotin)DR_]” registered a collision cross section (charge state: 3, modification: Biotin) of 512.53 ± 1.6 Å².

Turning to GEVQVSDKER [_GEVQVSDK(Crotonyl)ER_], under setting [11], the collision cross section was 363.4 ± 0.8 Å².

With “ISSNFSSIIAEKLR [_ISSNFSSIIAEK(Methyl (K))LR_]”, the collision cross section was 438.59 ± 1.7 Å² under setting [22] and 507.3 ± 3.6 Å² under setting [23].

For LDEKENLSAK [_LDEK(Propionyl)ENLSAK_], under setting [24], the collision cross section worked out at 369.99 ± 0.94 Å².

Turning to “IVFSGNLFQHQEDSKK [_IVFSGNLFQHQEDSK(Gluratylation)K_]”, the collision cross section was 499.16 ± 1.4 Å² under setting [8] and 531.31 ± 9.1 Å² under setting [25].

For “VLTANSNPSSPSAAKR [_VLTANSNPSSPSAAK(Formyl)R_]”, the collision cross section is, setting by setting: under setting [9], 421.8 ± 0.8 Å²; (charge state: 3, modification: Formyl) 501.92 ± 27 Å².

The substance SEASSEFAKK [_SEASSEFAK(Acetyl (K))K_] showed a collision cross section under setting [19] of 349.46 ± 1 Å².

Consider “LRQQLQAK [_LR(Citrullination (R))QQLQAK_]”, for which, under setting [26], the collision cross section amounted to 337.45 ± 0.28 Å².

In turn, VNALKNLQVK [_VNALK(Biotin)NLQVK_] returned a collision cross section under setting [14] of 393.86 ± 0.23 Å².

On to DVNAAIAAIKTK [_DVNAAIAAIK(Crotonyl)TK_], for which the collision cross section is 406.32 ± 0.28 Å² under setting [11] and 463.44 ± 4.2 Å² under setting [12].

Take “IDLPAENSNSETIIITGKR [_IDLPAENSNSETIIITGK(Dimethyl (K))R_]”: under setting [3], the collision cross section is reported as 568.21 ± 0.55 Å².

For “DVNAAIAAIKTK [_DVNAAIAAIK(Acetyl (K))TK_]”, the collision cross section is, setting by setting: under setting [19], 390.07 ± 14 Å²; under setting [20], 457.21 Å².

On to AYDATHLVK [_AY(Nitro (Y))DATHLVK_], for which the collision cross section was 358.23 ± 0.55 Å² under setting [4] and 417.35 Å² under setting [13].

Take “DAEAAEATAEGALKAEK [_DAEAAEATAEGALK(Propionyl)AEK_]”: under setting [24], the collision cross section stood at 451.16 ± 23 Å².

As for “LGNDFHTNKR [_LGNDFHTNK(hydroxyisobutyryl)R_]”, the collision cross section is on record as 382.96 ± 0.86 Å² under setting [17] and 448.25 ± 2.7 Å² under setting [18].

Regarding DHLSDKESK [_DHLSDK(Malonyl)ESK_], the collision cross section is, setting by setting: under setting [7], 349.37 ± 0.029 Å²; under setting [15], 411.48 Å².

Substance “DSINFLDHINGKK [_DSINFLDHINGK(Succinyl)K_]” returned a collision cross section under setting [27] of 461.79 Å².

The substance “YEEIVKEVSTYIK [_YEEIVK(Succinyl)EVSTYIK_]” came in with a collision cross section under setting [28] of 438.13 ± 0.83 Å².

For “VETTVTSLKTK [_VETTVTSLK(hydroxyisobutyryl)TK_]”, the collision cross section is given as 389.83 ± 0.81 Å² under setting [17] and 450.94 ± 1.9 Å² under setting [18].

As to “DTGEKLTVAENEAETK [_DTGEK(Succinyl)LTVAENEAETK_]”, the collision cross section runs as follows: under setting [28], 445.72 ± 1.1 Å²; under setting [27], 515.74 ± 2.2 Å².

For “SPDEAYAIAKK [_SPDEAYAIAK(Gluratylation)K_]”, the collision cross section reads like this: under setting [8], 380.21 ± 0.73 Å²; under setting [25], 455.46 ± 1.2 Å².

Substance ISALQGKLSK [_ISALQGK(Formyl)LSK_] displayed a collision cross section under setting [9] of 348.45 ± 1 Å².

As to “DTGEKLTVAENEAETK [_DTGEK(Gluratylation)LTVAENEAETK_]”, the collision cross section runs as follows: under setting [8], 451.19 ± 1.1 Å²; under setting [25], 527.35 Å².

As for “VGTASVLQPVKK [_VGTASVLQPVK(Gluratylation)K_]”, the collision cross section is, setting by setting: under setting [8], 391.34 ± 0.52 Å²; under setting [25], 415.52 ± 3.5 Å².

As for “PASGAGAGAGAGKR [_PASGAGAGAGAGK(Trimethyl (K))R_]”, the collision cross section stood at 392.96 ± 2.2 Å² (charge state: 2, modification: Trimethyl (K)) and 465.02 ± 1.8 Å² under setting [29].

Turning to SPDEAYAIAKK [_SPDEAYAIAK(Succinyl)K_], the collision cross section runs as follows: under setting [28], 374.28 ± 0.24 Å²; under setting [27], 452.6 ± 2.6 Å².

AQVLAGGRGK [_AQVLAGGR(Methyl (R))GK_]: the collision cross section under setting [21] is on record as 352.61 ± 7.6 Å².

As for “ITLSKHQNVQLPR [_ITLSK(Trimethyl (K))HQNVQLPR_]”, the collision cross section under setting [29] is recorded as 492.22 ± 3.3 Å².

As for “SSFAYKDQNENR [_SSFAYK(Methyl (K))DQNENR_]”, the collision cross section runs as follows: under setting [22], 422.28 ± 0.64 Å²; under setting [23], 455.52 ± 4 Å².

On to “TFGKAAGPSLSHTSGGTQSK [_TFGK(Succinyl)AAGPSLSHTSGGTQSK_]”, for which the collision cross section reads like this: under setting [28], 476.24 Å²; under setting [27], 513.01 ± 0.73 Å².

On to KFGVLSDNFK [_K(Propionyl)FGVLSDNFK_], for which the collision cross section under setting [24] is 374.07 ± 0.33 Å².

For “YSRGAGLGFSTAPNK [_YSR(Citrullination (R))GAGLGFSTAPNK_]”, under setting [26], the collision cross section is 397.83 ± 0.22 Å².
